Patent US20190271710A1 (Janssen / Centocor, published 2019)

T1: calibrant peptide pT3xhT43 (two phosphothreonines (pT) in GSRSR(pT)PSLP(pT)PPTREPKKV; dPEG4 linkers between the three segments; C-terminal amide)
T1 construct: Molecular weight 6893 g/mol
T1 peptide: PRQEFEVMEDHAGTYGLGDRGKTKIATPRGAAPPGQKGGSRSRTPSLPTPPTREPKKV

T2: calibrant peptide pT3xpT82 (N-terminal acetyl; dPEG4 linker between the two segments; two phosphothreonines (pT) in GSRSR(pT)PSLP(pT)PPTREPKKV; C-terminal amide)
T2 construct: Molecular weight 4551 g/mol
T2 peptide: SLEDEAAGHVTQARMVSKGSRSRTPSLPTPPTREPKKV

B1: pT3 mouse monoclonal antibody (antibody, V domains shown)
VH: EVKLVESGGDLVKPGGSLKLSCAASGFTFSSYAMSWVRQNPEKRLEWVASISKGGNTYYPNSVKGRFTISRDNARNILYLQMSSLRSEDTALYYCARGWGDYGWFAYWGQVTLVTVSA
VL: DIKMTQSPSSMYASLGERVTITCKASQDINRYLNWFQQKPGKSPKTLIYRANRLLDGVPSRFSGSGSGQDYSLTISSLDYEDMGIYYCLQYDEFPLTFGDGTKLELK
notes: Parental mouse mAb expressed by a mouse hybridoma; Used on capture beads, and as soluble antibody in spiking experiments; also called pT3 mAb
B2: pT82 mAb (antibody, V domains shown)
VH: EVKLEESGGGLVQPGGSMKLSCVASGFTFSNYWMNWIRQSPEKGLEWVAQIRLQSDNYATRYAESVKGRFTISRDESKTSVYLQMNNLRTEDTGIYYCTGGTTYWGQGTLVTVSA
VL: DIVMTQSQKFMSTSVGDRVSITCKASQNVGTAVAWYQQKPGQSPKLLIYSASIRYTGVPDRFTGSGSGTDFTLTINYMQSEDLADYFCQQFSSYPYTFGGGTKLEIK
notes: The majority assignment is used

How the values were obtained:
[1] = biological target: T1, calibrant peptide pT3xhT43; assay: Simoa pT3xhT43 sandwich assay, calibrant titrated 30 to 0.041 pg/ml
Protocol: (§1) The calibrant peptides were reconstituted to 5 mg/ml in 0.1% phosphoric acid/water, aliquoted to 20 ul and frozen. When ready for use, the calibrant peptide aliquots were thawed and diluted 1:1000 (e.g. 1.5 ul into 1498.5 ul), and the dilutions were diluted […] so that the final concentration of the peptides was 5000 pg/ml. A standard curve with 3× jumps was made, starting at 30 pg/ml.
(§2) Calibrant peptides described in Example 1 were produced. The calibrant peptides contained the core epitopes of pT3 and hT43, or pT3 and pT82 separated by PEG4 linkers, and they were used to generate standard curves. Calibrant peptides were titrated from 30 pg/ml to 0.041 pg/ml in 1:3 jumps in assay buffer and measured with the pT3xhT43 and pT3xpT82 assays. A 4-parameter curve fit data reduction method (4PL, 1/y2 weighted) was used to generate the calibration curve. The lower limit of detection (LLOD) was defined as the calculated calibrant level yielding an AEB equal to the average of the zero calibrator+2.5 standard deviations (SD), including 10% coefficient of variation (CV). With these criteria, the representative data yielded an LLOD of 0.002 pg/ml. The Linear Range of the assay, lower limit of quantification (LLOQ) and upper limit of quantification (ULOQ), was defined as the lowest and highest standard curve points achieving CV<20% and recovery 80-120% of expected. […]

[2] = biological target: T2, calibrant peptide pT3xpT82; assay: Simoa pT3xpT82 sandwich assay, calibrant titrated 30 to 0.041 pg/ml
Protocol: as §1, §2

Binder | binding result [1] | binding result [2]
B1 | binds | 
B2 |  | binds
